The target of this experiment is fap24_human FAAP24 (UniProt Q9BTP7).
Chain of UniProt Q9BTP7 (Q9BTP7 whole entry): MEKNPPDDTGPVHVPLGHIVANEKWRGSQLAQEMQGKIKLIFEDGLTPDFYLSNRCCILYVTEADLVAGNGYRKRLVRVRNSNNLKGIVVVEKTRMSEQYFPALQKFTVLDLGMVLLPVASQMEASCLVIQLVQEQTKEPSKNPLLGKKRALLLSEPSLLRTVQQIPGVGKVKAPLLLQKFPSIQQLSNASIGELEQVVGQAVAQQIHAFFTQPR

As to “Fanconi anemia group M protein (Homo sapiens), Q8IYD8 K117R”, the “effect of a mutation on the interaction” value is given as “with no effect”.

The values are drawn from IntAct's records for PubMed 17289582.
